Data published in patent publication USRE50631E1, “ROR1 antibody immunoconjugates” (VelosBio Inc., priority 2017, dated 2025).

B1: D10: a lower affinity antibody that binds the same epitope as Ab1 (antibody, V domains shown)
VH: QVQLKESGPGLVAPSQTLSITCTVSGFSLTSYGVHWVRQPPGKGLEWLGVIWAGGFTNYNSALKSRLSISKDNSKSQVLLKMTSLQTDDTAMYYCARRGSSYSMDYWGQGTSVIVSS
VL: EIVLSQSPAITAASLGQKVTITCSASSNVSYIHWYQQRSGTSPRPWIYEISKLASGVPVRFSGSGSGTSYSLTISSMEAEDAAIYYCQQWNYPLITFGSGTKLEIQ
B2: ADC-S: D10 conjugated via MAL-VC-PAB to MMAE (conjugate)
VH: QVQLKESGPGLVAPSQTLSITCTVSGFSLTSYGVHWVRQPPGKGLEWLGVIWAGGFTNYNSALKSRLSISKDNSKSQVLLKMTSLQTDDTAMYYCARRGSSYSMDYWGQGTSVIVSS
VL: EIVLSQSPAITAASLGQKVTITCSASSNVSYIHWYQQRSGTSPRPWIYEISKLASGVPVRFSGSGSGTSYSLTISSMEAEDAAIYYCQQWNYPLITFGSGTKLEIQ

Columns and labels:
ROR1 on Jeko-1 cells = target: T1, ROR1 on Jeko-1 cells (Homo sapiens, UniProt Q01973); test: Binding to ROR1-positive Jeko-1 cells (flow cytometry receptor binding assay); conditions: 20 minutes on ice, PE secondary antibody
T1 construct: The Jeko-1 cell line, from mantle cell lymphoma, is a suspension cell line; host or cells: Jeko-1 (human mantle cell lymphoma)
T1 sequence (Q01973 30-937): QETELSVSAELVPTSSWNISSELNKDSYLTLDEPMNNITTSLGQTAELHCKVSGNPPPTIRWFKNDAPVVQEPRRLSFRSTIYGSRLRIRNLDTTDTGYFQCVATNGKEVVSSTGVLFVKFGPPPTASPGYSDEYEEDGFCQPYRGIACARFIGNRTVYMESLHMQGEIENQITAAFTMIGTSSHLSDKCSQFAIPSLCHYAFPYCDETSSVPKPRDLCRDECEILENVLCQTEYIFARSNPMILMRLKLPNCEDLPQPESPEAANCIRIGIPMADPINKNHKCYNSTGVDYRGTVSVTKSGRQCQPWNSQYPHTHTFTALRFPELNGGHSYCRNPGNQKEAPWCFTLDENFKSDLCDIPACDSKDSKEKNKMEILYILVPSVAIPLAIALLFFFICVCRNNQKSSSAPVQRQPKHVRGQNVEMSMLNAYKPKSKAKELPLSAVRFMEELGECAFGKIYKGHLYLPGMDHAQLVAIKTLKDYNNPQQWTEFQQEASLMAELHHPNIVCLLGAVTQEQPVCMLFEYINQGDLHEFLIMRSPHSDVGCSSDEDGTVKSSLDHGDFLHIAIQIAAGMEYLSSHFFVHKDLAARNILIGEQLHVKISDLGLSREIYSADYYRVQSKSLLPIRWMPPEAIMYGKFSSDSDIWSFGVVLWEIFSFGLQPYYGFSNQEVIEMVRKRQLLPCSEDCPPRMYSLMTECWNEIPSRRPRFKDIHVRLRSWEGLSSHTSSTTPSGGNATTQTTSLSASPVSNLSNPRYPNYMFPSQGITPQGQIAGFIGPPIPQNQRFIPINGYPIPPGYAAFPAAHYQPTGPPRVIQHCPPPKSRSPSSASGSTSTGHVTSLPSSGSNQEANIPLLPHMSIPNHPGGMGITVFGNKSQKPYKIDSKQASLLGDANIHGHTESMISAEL
Method: The binding to tumor cells by antibodies Ab1 and 4A5, as well as ADC constructs derived from those antibodies (ADC-A and ADC-T), was evaluated. First, the binding of Ab1 to two ROR1-positive human tumor cell lines representing different cancer types was tested. The Jeko-1 cell line, from mantle cell lymphoma, is a suspension cell line, while the MDA-MB-231 cell line, from triple negative breast cancer, is an adherent cell line. The cell lines have different levels of ROR1 expression, with Jeko-1 cells displaying about 13507 cell surface copies and the MDA-MB-231 cells displaying about 21015 cell surface copies. The Jeko-1 (ATCC Cat. No. CRL-3006) and MDA-MB-231 (ATCC Cat. No. […]) cell lines were purchased from the American Type Culture Collection and were maintained according to the ATCC recommendations.
Jeko-1 cells (FIG. 2A) or MDA-MB-231 cells (FIG. 2B) were incubated with 0, 1, 10, 100, or 1000 ng/mL of Ab1 for 20 minutes on ice. After washing off unbound antibody, the cells were incubated with secondary anti-human IgG antibody labeled with phycoerythrin (PE) for an additional 20 minutes. The amount of PE fluorescence was measured using the BDFACS Verse analyzer and FlowJo V10 software. The PE signal for the highest concentration was used as the maximal binding signal to calculate the % maximal binding. EC50 was calculated using GraphPad Prism 7. […]

Mino = test: Cytotoxicity in vitro (CellTiter-Glo viability), Mino; format: cell-based, human; conditions: Mino (MCL), 72 hours
Method: Cells were cultured in log phase growth and distributed into 96-well plates. Each cell line was plated at a slightly different cell density, ranging from 5×10^3 to 50×10^4 cells/well. Cells in duplicate were incubated with 3-fold serial dilution of a particular immunoconjugate (10, 3.33, 1.11, 0.37, 0.12, 0.041, 0.014, and 0.0045 μM) for 72 hours at 37° C. and 5% CO2. After treatment, cells were incubated with an equal volume of CellTiter-Glo® reagent (Promega Inc.) for 15 minutes at room temperature and viability was determined by a luminometer. Curves and EC50 values were generated in GraphPad Prism using a sigmoidal dose response non-linear regression fit.
Cells were grown and distributed into 96-well plates as described in Example 5. Cells in duplicate were incubated with 3-fold serial dilution of a particular immunoconjugate (660, 220, 73.3, 24.4, 8.14, 2.71, 0.91, and 0.3 nM) for 72 hours at 37° C. and 5% CO2. In some experiments, cells were incubated with an immunoconjugate for 96 hours instead of 72 hours (values highlighted with “*”). After treatment, cell viability was determined as described in Example 5.

Jeko-1 MCL xenograft = test: Jeko-1 human MCL xenograft model (study 7); format: in vivo, mouse; conditions: 1 mg/kg ADC-N, ADC-P, ADC-R; 5 mg/kg ADC-A, ADC-L, ADC-M, ADC-S, ADC-T; IV Q4D
Method: Jeko-1 (MCL) cells were engrafted subcutaneously into mice. When tumor size reached 100 mm^3, the mice were randomized into nine groups, 9 mice/group. The groups were vehicle control; 1 mg/kg ADC-N, ADC-P or ADC-R; or 5 mg/kg ADC-A, ADC-L, ADC-M, ADC-S, or ADC-T. The mice were dosed IV q4d.

Molecule	EC50 of binding to cells (ROR1 on Jeko-1 cells)	EC50 (Mino)	tumor growth / average tumor size (interim results, day 14) (Jeko-1 MCL xenograft)
B1	0.25 µg/mL		
B2	0.15 µg/mL	83.3 nM	Significant tumor regression
